Results reported in patent US20030220243A1 (Eli Lilly, published 2003).
Ends that are not written are not given here.

biological target: GLP-1 receptor; test: cell-based or functional assay

| Binder | GLP-1 Receptor Activation |
| --- | --- |
| HVEGTFTSDVSSYLEGQAAKEFIAWLVKGGP-NH2 [Val^8-Gly^36-Pro^37-GLP-1(7-37)NH2] | 0.53 relative to GLP-1(7-37)OH |
| HVEGTFTSDVSSYLEGEAAKEFIAWLVKGR [Val^8-Glu^23-GLP-1(7-36)OH] | 0.28 relative to GLP-1(7-37)OH |
| HVEGTFTSDVSSYLEKQAAKEFIAWLVKGR-NH2 [Val^8-Lys^22-GLP-1(7-36)NH2] | 0.53 relative to GLP-1(7-37)OH |
| HVEGTFTSDVSSYLEEQAAKEFIAWLVKGR-NH2 [Val^8-Glu^22-GLP-1(7-36)NH2] | 1 relative to GLP-1(7-37)OH |
| HVEGTFTSDVSSYLEKEAAKEFIAWLVKGRH [Val^8-Lys^22-Glu^23-GLP-1(7-37)OH] | 0.35 relative to GLP-1(7-37)OH |
| HVEGTFTSDVSSYKEGQAAKEFIAWLVKGRG [Val^8-Lys^20-GLP-1(7-37)OH] | 0.33 relative to GLP-1(7-37)OH |
| HVEGTFTSDVSSYLEGQAAKEFIDWLVKGRG [Val^8-Asp^30-GLP-1(7-37)OH] | 0.15 relative to GLP-1(7-37)OH |
| HAEGTFTSDVSSYLEGQAAEEFIAWLVKGRG [Ala^8-Glu^26-GLP-1(7-37)OH] | 0.7 relative to GLP-1(7-37)OH |
| HGEGHFTSDVSSYLEGQAAKEFIAWLVKGRG [Gly^8-His^11-GLP-1(7-37)OH] | 0.282 relative to GLP-1(7-37)OH |
| HVEGTYTSDVSSYLEGQAAKEFIAWLVKGRG [Val^8-Tyr^12-GLP-1(7-37)OH] | 0.81 relative to GLP-1(7-37)OH |
| HVEGTFTSDVSSYLEGQAAKEFIAWLVKERG [Val^8-Glu^35-GLP-1(7-37)OH] | 0.15 relative to GLP-1(7-37)OH |
| HVEGTFTSDVSSYLEGQAAKEFIAWLAKGRG [Val^8-Ala^33-GLP-1(7-37)OH] | 0.1 relative to GLP-1(7-37)OH |
| HVEGTFTSDVSSYLEKQAAKEFIAWLVKGRG [Val^8-Lys^22-GLP-1(7-37)OH] | 0.58 relative to GLP-1(7-37)OH |
| HVEGTFTSDVSSYLEGQHAKEFIAWLVKGRG [Val^8-His^24-GLP-1(7-37)OH] | 0.007 relative to GLP-1(7-37)OH |
| HVEGTFTSDVSSYLEGQAAKEFIAWLEKGRG [Val^8-Glu^33-GLP-1(7-37)OH] | 0.039 relative to GLP-1(7-37)OH |
| HVEGTFTSDVSSYLEGQAAKEFIAWLKNGRG [Val^8-Lys^33-Asn^34-GLP-1(7-37)OH] | 0.09 relative to GLP-1(7-37)OH |
| HVEGTFTSDVSSYLEGQAAKEFIEWLVKGRG [Val^8-Glu^30-GLP-1(7-37)OH] | 0.29 relative to GLP-1(7-37)OH |
| HVEGTFTSDLSSYLEGQAAEEFIAWLVKGRG [Val^8-Leu^16-Glu^26-GLP-1(7-37)OH] | 0.23 relative to GLP-1(7-37)OH |
| HVEGTFTSDESSYLEGQAAKEFIAWLVKGRG [Val^8-Glu^16-GLP-1(7-37)OH] | 0.047 relative to GLP-1(7-37)OH |
| HAEGTFTSDVSSYLEQQAAKEFIAWLVKGRG [Gln^22-GLP-1(7-37)OH] | 0.42 relative to GLP-1(7-37)OH |
| HVEGKFTSDVSSYLEGQAAKEFIAWLVKGRG [Val^8-Lys^11-GLP-1(7-37)OH] | 0.001 relative to GLP-1(7-37)OH |
| HAEGTFTSDVSSYLEGQAAHEFIAWLVKGRG [Ala^8-His^26-GLP-1(7-37)OH] | 0.8 relative to GLP-1(7-37)OH |
| HVEGAFTSDVSSYLEGQAAKEFIAWLVKGRG [Val^8-Ala^11-GLP-1(7-37)OH] | 0.021 relative to GLP-1(7-37)OH |
| HVEGTFTSDVSSYLESQAAKEFIAWLVKGRG [Val^8-Ser^22-GLP-1(7-37)OH] | 0.5 relative to GLP-1(7-37)OH |

| Binder | GLP-1 Receptor Activation |
| --- | --- |
| HVEGTFTSDVSSYLEGQAAKEFIAWLKVGRG [Val^8-Lys^33-Val^34-GLP-1(7-37)OH] | 0.08 relative to GLP-1(7-37)OH |
| HVEGTFTSDVSSYLEGQAAKEFIAWLVKGRH [Val^8-His^37-GLP-1(7-37)OH] | 0.33 relative to GLP-1(7-37)OH |
| HVEGTFTSDVSSYLEGQAAKHFIAWLVKGRG [Val^8-His^27-GLP-1(7-37)OH] | 0.37 relative to GLP-1(7-37)OH |
| HVEGTFTSDVSSYLEHQAAKEFIAWLVKGRG [Val^8-His^22-GLP-1(7-37)OH] | 0.14 relative to GLP-1(7-37)OH |
| HVEGTFTSDVSSYLEGQKAKEFIAWLVKGRG [Val^8-Lys^24-GLP-1(7-37)OH] | 0.02 relative to GLP-1(7-37)OH |
| HVEGTFTSDVSSYLEGQAAKEFIAWLVKHRG [Val^8-His^35-GLP-1(7-37)OH] | 0.41 relative to GLP-1(7-37)OH |
| HVEGTFTSDVSSYLEGQAAKEFIAWLVEGRG [Val^8-Glu^34-GLP-1(7-37)OH] | 0.17 relative to GLP-1(7-37)OH |
| HVEGTFTSDVSSYLEDQAAKEFIAWLVKGRG [Val^8-Asp^22-GLP-1(7-37)OH] | 0.4 relative to GLP-1(7-37)OH |
| HVEGTFTSDVSSYLEPQAAKEFIAWLVKGRG [Val^8-Pro^22-GLP-1(7-37)OH] | 0.01 relative to GLP-1(7-37)OH |
| HVEGTFTSDASSYLEGQAAKEFIAWLVKGRG [Val^8-Ala^16-GLP-1(7-37)OH] | 0.112 relative to GLP-1(7-37)OH |
| HVEGTFTSDVSSYLEKQAAKEFIEWLVKGRG [Val^8-Lys^22-Glu^30-GLP-1(7-37)OH] | 0.37 relative to GLP-1(7-37)OH |
| HVEGTFTSDVSSYLEGQAAKEFIAWLVKGHG [Val^8-His^36-GLP-1(7-37)OH] | 0.22 relative to GLP-1(7-37)OH |
| HVEGTFTSDYSSYLEGQAAKEFIAWLVKGRG [Val^8-Tyr^16-GLP-1(7-37)OH] | 1.18 relative to GLP-1(7-37)OH |
| HVEGTFTSDVSSYLEGQAAKEFIAWLVKGEG [Val^8-Glu^36-GLP-1(7-37)OH] | 0.11 relative to GLP-1(7-37)OH |
| HVEGTFTSDVSSYLEGQAAKEFIAWLVGKRG [Val^8-Gly^34-Lys^35-GLP-1(7-37)OH] | 0.34 relative to GLP-1(7-37)OH |
| HVEGTFTSDVSSYLEGQAAKEFIAWLVKPRG [Val^8-Pro^35-GLP-1(7-37)OH] | 0.094 relative to GLP-1(7-37)OH |
| HVEGTFTSDVSSYLEGQAAKEFISWLVKGRG [Val^8-Ser^30-GLP-1(7-37)OH] | 0.19 relative to GLP-1(7-37)OH |
| HVEGTFTSDVSSYLEAQAAKEFIAWLVKGRG [Val^8-Ala^22-GLP-1(7-37)OH] | 0.56 relative to GLP-1(7-37)OH |
| HGEGTFTSDVSSYLEGQAAKEFIEWLVKGRG [Gly^8-Glu^30-GLP-1(7-37)OH] | 0.29 relative to GLP-1(7-37)OH |
| HVEGTFTSDVSSYLEGKAAKEFIAWLVKGRG [Val^8-Lys^23-GLP-1(7-37)OH] | 0.18 relative to GLP-1(7-37)OH |
| HVEGTFTSDVSSYLEGQAAKEFIHWLVKGRG [Val^8-His^30-GLP-1(7-37)OH] | 0.19 relative to GLP-1(7-37)OH |
| HVEGTFTSDVSSYLEEKAAKEFIAWLVKGRG [Val^8-Glu^22-Lys^23-GLP-1(7-37)OH] | 1.43 relative to GLP-1(7-37)OH |
| HVEGTFTSDVSSYLEGQAAKEFIAWLGKGRG [Val^8-Gly^33-GLP-1(7-37)OH] | 0.01 relative to GLP-1(7-37)OH |
